This is an account of results in US6048719.

The series relates to DraIII restriction endonuclease (R.DraIII) (Deinococcus radiophilus). Nature of the series: cleavage_in_vitro. The conditions noted are these: Source-15Q fraction 11; DraIII activity assayed on lambda DNA.

lambda DNA gave an activity of 121000 u/ml.
